B1: scFv; the commonest letter at each place (parent)
chain 1: EVKLDETGGGLVQPGRPMKLSCVASGFTFSDYWMNWVRQSPEKGLEWVAQIRNKPYNYETYYSDSVKGRFTISRDDSKSSVYLQMNNLRVEDMGIYYCTGSYYGMDYWGQGTSVTVS
chain 2: DVVMTQTPLSLPVSLGDQASISCRSSQSLVHSNGNTYLRWYLQKPGQSPKVLIYKVSNRFSGVPDRFSGSGSGTDFTLKISRVEAEDLGVYFCSQSTHVPWTFGGGTKLEIK

In the series “fluorescein” the parent is B1. The experiment in a line: Kd (Tite-Seq). The following applies: with fluorescein; format: scFv 4-4-20, heavy + light.
Variants of B1 are the subject of series [1]. Put plainly: yeast surface expression (ratio to wild type); higher = more expressed. The following applies: format: scFv 4-4-20, heavy + light.

For the variant chain 1 G104H G109H, the Kd – broadly, the concentration at which binding is half-saturated – with fluorescein is at least 10 µM. For the same variant, the yeast surface expression in series [1] was 0.765.
On the same counts, the results for chain 1 M105V Y107A are at least 10 µM and 0.758.
With chain 1 T28S W33S, the Kd in the series with fluorescein is at least 10 µM. The yeast surface expression in series [1] is 0.919.
In the same order, the values of chain 1 M34Y W36V are at least 10 µM and 0.522.
For the variant chain 1 Y103W M105T, the Kd with fluorescein is at least 10 µM. The yeast surface expression in series [1] was 0.915.
For chain 1 G104R D106M, in the series with fluorescein, the Kd is at least 10 µM. Besides, the yeast surface expression in series [1] was found to be 0.275.
Take chain 1 W33R M34I: in the series with fluorescein, the Kd is at least 10 µM. The yeast surface expression in series [1] worked out at 0.644.
With chain 1 T28C D31Q, the Kd in the series with fluorescein is 0.0113 µM. The yeast surface expression in series [1] was found to be 0.575.
chain 1 G100V S101H: the Kd with fluorescein was at least 10 µM. Moreover, the yeast surface expression in series [1] worked out at 0.872.
Take chain 1 Y102M Y107S: in the series with fluorescein, the Kd was at least 10 µM. Moreover, the yeast surface expression in series [1] turned out to be 0.685.
In the case of chain 1 Y32I N35P, the Kd with fluorescein was at least 10 µM. Moreover, the yeast surface expression in series [1] came out at 0.0981.
On the same counts, the results for chain 1 G100Y Y102T are at least 10 µM and 0.662.
With chain 1 F29Q W33I, the equilibrium dissociation constant (Kd) with fluorescein is at least 10 µM. Moreover, in series [1], the yeast surface expression is 0.707.
On the same counts, the results for chain 1 N35K V37K are 6.96 µM and 0.0981.
On to chain 1 S101M D106G, for which the Kd with fluorescein is at least 10 µM. The yeast surface expression in series [1] worked out at 0.323.
For chain 1 G104E W108S, in the series with fluorescein, the Kd is at least 10 µM. In series [1], the yeast surface expression is 0.331.
chain 1 S30M Y32R: the Kd with fluorescein came out at 4.84 µM. For the same variant, the yeast surface expression in series [1] came out at 0.465.
Turning to chain 1 F29I W33M V37P, the Kd with fluorescein is at least 10 µM. Moreover, the yeast surface expression in series [1] was 0.444.
In the same order, the values of chain 1 S101R D106T are at least 10 µM and 0.466.
On the same counts, the results for chain 1 F29E D31G N35R are at least 10 µM and 0.621.
Turning to chain 1 W108G, the Kd with fluorescein came to 0.102 µM. In series [1], the yeast surface expression is 0.48.
Turning to chain 1 W108F, the Kd in the series with fluorescein is at most 0.000316 µM. Moreover, the yeast surface expression in series [1] worked out at 0.644.
On the same counts, the results for chain 1 S101E W108H are at least 10 µM and 0.374.
chain 1 Y102T G104W: the dissociation constant Kd in the series with fluorescein is at least 10 µM. Also, the yeast surface expression in series [1] was found to be 0.638.
On the same counts, the results for chain 1 Y32A M34E V37C are at least 10 µM and 0.299.
Consider chain 1 S30H W33C, for which, in the series with fluorescein, the Kd was at least 10 µM. The yeast surface expression in series [1] was determined as 0.61.
chain 1 G104L Y107C: the Kd in the series with fluorescein is at least 10 µM. In addition, the yeast surface expression in series [1] was 0.133.
In the same order, the values of chain 1 S30M D31F are 5.66 µM and 0.611.
On the same counts, the results for chain 1 M34S W36Q are at least 10 µM and 0.147.
On the same counts, the results for chain 1 S101D W108N are at least 10 µM and 0.445.
Regarding chain 1 Y32G M34N, the Kd with fluorescein was at least 10 µM. Also, the yeast surface expression in series [1] was 0.613.
On the same counts, the results for chain 1 G100D S101W are at least 10 µM and 0.171.
On to chain 1 Y107R W108N, for which the Kd with fluorescein is at least 10 µM. For the same variant, the yeast surface expression in series [1] was 0.495.
Regarding chain 1 G100K W108H, the Kd in the series with fluorescein is at least 10 µM. In addition, the yeast surface expression in series [1] was found to be 0.249.
Turning to chain 1 D31F V37E, the Kd with fluorescein is at least 10 µM. In addition, the yeast surface expression in series [1] was determined as 0.257.
In the same order, the values of chain 1 S101M G109W are at least 10 µM and 0.231.
In the same order, the values of chain 1 Y103E W108I are 0.004 µM and 1.12.
Take chain 1 Y102F: the Kd in the series with fluorescein was determined as 0.00309 µM. Also, the yeast surface expression in series [1] was determined as 0.776.
With chain 1 Y102M, the Kd with fluorescein came to 4.6 µM. The yeast surface expression in series [1] worked out at 0.944.
On the same counts, the results for chain 1 D106F are at least 10 µM and 0.325.
chain 1 D106T: in the series with fluorescein, the dissociation constant Kd was found to be 0.00785 µM. The yeast surface expression in series [1] turned out to be 1.09.
On the same counts, the results for chain 1 G100M M105F are at least 10 µM and 0.769.
As to chain 1 Y102N G104Q, the Kd with fluorescein was at least 10 µM. For the same variant, in series [1], the yeast surface expression came out at 0.924.
In the same order, the values of chain 1 G100F G109N are at least 10 µM and 0.41.
For the variant chain 1 D106P W108M, the Kd with fluorescein is at least 10 µM. In addition, the yeast surface expression in series [1] worked out at 0.714.
As for chain 1 Y32K V37T, the Kd with fluorescein was at least 10 µM. Moreover, the yeast surface expression in series [1] was 0.623.
In the same order, the values of chain 1 G104M W108V G109T are at least 10 µM and 0.212.
On the same counts, the results for chain 1 Y103S are 0.0318 µM and 1.05.
Turning to chain 1 T28Y N35Y, the Kd in the series with fluorescein was at least 10 µM. Also, the yeast surface expression in series [1] amounted to 0.86.
Turning to chain 1 Y102E W108I, in the series with fluorescein, the Kd was found to be 0.000846 µM. The yeast surface expression in series [1] stood at 0.763.
With chain 1 G100C D106Q, the Kd in the series with fluorescein was at least 10 µM. The yeast surface expression in series [1] was 0.754.
In the same order, the values of chain 1 G100C D106N are 0.00343 µM and 0.768.
In the same order, the values of chain 1 Y103D D106R are at least 10 µM and 0.454.
Take chain 1 Y102Q M105I: the Kd in the series with fluorescein was determined as 8.56 µM. Further, the yeast surface expression in series [1] is 0.843.
In the same order, the values of chain 1 F29K are at least 10 µM and 0.849.
In the same order, the values of chain 1 F29P are 0.0318 µM and 1.05.
On the same counts, the results for chain 1 D106V W108N are at least 10 µM and 0.371.
Turning to chain 1 T28M D31I W33Y, the Kd with fluorescein is at least 10 µM. In addition, the yeast surface expression in series [1] worked out at 0.462.
